Experimental data reported in the supplement of paper PMC12458215.
± gives the uncertainty stated by the source.

Tested on: HEK293T
Assay: plasma membrane surface immunostaining intensity (anti-HA, deep receptor scanning) (arbitrary fluorescence units); higher = higher plasma membrane expression

Sequence | plasma membrane surface immunostaining intensity (GPCR class: A (Olfactory)) | plasma membrane surface immunostaining intensity (GPCR class: A) | also measured
MESNQTWITEVILLGFQVDPALELFLFGFFLLFYSLTLMGNGIILGLIYLDSRLHTPMYVFLSHLAIVDMSYASSTVPKMLANLVMHKKVISFAPCILQTFLYLAFAITECLILVMMCYDRYVAICHPLQYTLIMNWRVCTVLASTCWIFSFLLALVHITLILRLPFCGPQKINHFFCQIMSVFKLACADTRLNQVVLFAGSAFILVGPLCLVLVSYLHILVAILRIQSGEGRRKAFSTCSSHLCVVGLFFGSAIVMYMAPKSSHSQERRKILSLFYSLFNPILNPLIYSLRNAEVKGALKRVLWKQRSM [OR2A12] | 126 ± 28 | – | –
MDHCGALFLCLCLLTLQNATTETWEELLSYMENMQVSRGRSSVFSSRQLHQLEQMLLNTSFPGYNLTLQTPTIQSLAFKLSCDFSGLSLTSATLKRVPQAGGQHARGQHAMQFPAELTRDACKTRPRELRLICIYFSNTHFFKDENNSSLLNNYVLGAQLSHGHVNNLRDPVNISFWHNQSLEGYTLTCVFWKEGARKQPWGGWSPEGCRTEQPSHSQVLCRCNHLTYFAVLMQLSPALVPAELLAPLTYISLVGCSISIVASLITVLLHFHFRKQSDSLTRIHMNLHASVLLLNIAFLLSPAFAMSPVPGSACTALAAALHYALLSCLTWMAIEGFNLYLLLGRVYNIYIRRYVFKLGVLGWGAPALLVLLSLSVKSSVYGPCTIPVFDSWENGTGFQNMSICWVRSPVVHSVLVMGYGGLTSLFNLVVLAWALWTLRRLRERADAPSVRACHDTVTVLGLTVLLGTTWALAFFSFGVFLLPQLFLFTILNSLYGFFLFLWFCSQRCRSEAEAKAQIEAFSSSQTTQ [ADGRG5] | – | – | plasma membrane surface immunostaining intensity (GPCR class: B): 512 ± 20
MGKTKNTSLDAVVTDFILLGLSHPPNLRSLLFLVFFIIYILTQLGNLLILLTMWADPKLCARPMYILLGVLSFLDMWLSSVTVPLLILDFTPSIKAIPFGGCVAQLYFFHFLGSTQCFLYTLMAYDRYLAICQPLRYPVLMNGRLCTVLVAGAWVAGSMHGSIQATLTFRLPYCGPNQVDYFICDIPAVLRLACADTTVNELVTFVDVGVVAASCFMLILLSYANIVNAILKIRTTDGRRRAFSTCGSHLIVVTVYYVPCIFIYLRAGSKDPLDGAAAVFYTVVTPLLNPLIYTLRNQEVKSALKRITAG [OR10G2] | 111 ± 16 | – | –
MNPTDIADTTLDESIYSNYYLYESIPKPCTKEGIKAFGELFLPPLYSLVFVFGLLGNSVVVLVLFKYKRLRSMTDVYLLNLAISDLLFVFSLPFWGYYAADQWVFGLGLCKMISWMYLVGFYSGIFFVMLMSIDRYLAIVHAVFSLRARTLTYGVITSLATWSVAVFASLPGFLFSTCYTERNHTYCKTKYSLNSTTWKVLSSLEINILGLVIPLGIMLFCYSMIIRTLQHCKNEKKNKAVKMIFAVVVLFLGFWTPYNIVLFLETLVELEVLQDCTFERYLDYAIQATETLAFVHCCLNPIIYFFLGEKFRKYILQLFKTCRGLFVLCQYCGLLQIYSADTPSSSYTQSTMDHDLHDAL [CCR4] | – | 186 ± 14 | –
MFRQEQPLAEGSFAPMGSLQPDAGNASWNGTEAPGGGARATPYSLQVTLTLVCLAGLLMLLTVFGNVLVIIAVFTSRALKAPQNLFLVSLASADILVATLVIPFSLANEVMGYWYFGKAWCEIYLALDVLFCTSSIVHLCAISLDRYWSITQAIEYNLKRTPRRIKAIIITVWVISAVISFPPLISIEKKGGGGGPQPAEPRCEINDQKWYVISSCIGSFFAPCLIMILVYVRIYQIAKRRTRVPPSRRGPDAVAAPPGGTERRPNGLGPERSAGPGGAEAEPLPTQLNGAPGEPAPAGPRDTDALDLEESSSSDHAERPPGPRRPERGPRGKGKARASQVKPGDSLPRRGPGATGIGTPAAGPGEERVGAAKASRWRGRQNREKRFTFVLAVVIGVFVVCWFPFFFTYTLTAVGCSVPRTLFKFFFWFGYCNSSLNPVIYTIFNHDFRRAFKKILCRGDRKRIV [ADRA2A] | – | 2600 ± 560 | –
MNPENWTQVTSFVLLGFPSSHLIQFLVFLGLMVTYIVTATGKLLIIVLSWIDQRLHIQMYFFLRNFSFLELLLVTVVVPKMLVVILTGDHTISFVSCIIQSYLYFFLGTTDFFLLAVMSLDRYLAICRPLRYETLMNGHVCSQLVLASWLAGFLWVLCPTVLMASLPFCGPNGIDHFFRDSWPLLRLSCGDTHLLKLVAFMLSTLVLLGSLALTSVSYACILATVLRAPTAAERRKAFSTCASHLTVVVIIYGSSIFLYIRMSEAQSKLLNKGASVLSCIITPLLNPFIFTLRNDKVQQALREALGWPRLTAVMKLRVTSQRK [OR6T1] | 112 ± 19 | – | –
